According to paper PMC4845985:
Residue numbers refer to the chain shown, from its start. Names may count otherwise.

How the values were obtained:
[1] = biological target: fluorescein-labelled hypusine-containing human eIF5A^C22A,C38A,C73A,C129A,T142C (human) (UniProt P63241); assay: fluorescence polarisation; ribosomal complex titrated into 5-10 nM eIF5A-fl; 20 mM Hepes pH 7.5, 100 mM KOAc, 2.5 mM Mg(OAc)2, 1 mM DTT, 15 μM BSA; 30°C 30 min
[2] = biological target: human ribosomes (complex not specified) (human (endogenous in HeLa)); assay: fluorescence polarisation; yeast eIF5A with human ribosomes by anisotropy change; data not shown
[3] = biological target: fluorescein-labelled hypusine-containing human eIF5A^C22A,C38A,C73A,C129A,T142C (human) (UniProt P63241); assay: fluorescence polarisation; yeast 80S titrated into eIF5A-fl in the presence of saturating eEF2 (1 μM); same buffer, 30°C
[4] = biological target: human 60S ribosomal subunit (human (endogenous in HeLa)); assay: fluorescence polarisation; competition: non-labeled eIF5A titrated (from 5 μM) into preformed ribosome-eIF5A-fl, ribosome 50 nM; same buffer, 30°C 30 min; apparent Ki
[5] = biological target: human reconstituted 80S ribosome with Met-tRNAi^Met (40S+60S+Met-tRNAi^Met) (human (endogenous in HeLa)); assay: as above
[6] = biological target: human reconstituted 80S ribosome (40S+60S) (human (endogenous in HeLa)); assay: as above
[7] = biological target: yeast pre-assembled 80S ribosome (yeast) (UniProt P26321); assay: as above
[8] = biological target: yeast pre-assembled 80S ribosome (yeast) (UniProt P26321); assay: fluorescence polarisation; competition: non-labeled yeast eIF5A titrated into preformed 80S-eIF5A-fl in the presence of saturating eEF2

Molecule: human 60S ribosomal subunit (complex)
- Kd [1]: 0.128 µM

Molecule: human 40S ribosomal subunit (complex)
- Kd [1]: > 1.7 µM

Molecule: yeast eIF5A tested on human ribosomes (data not shown) (from UniProt P23301 1-157) (natural protein)
- affinity (constant not named) [2]: > 2000 nM

Molecule: yeast pre-assembled 80S ribosome (from UniProt P26321 1-297) (complex)
- Kd [1]: 0.01 µM
- Kd in the presence of saturating eEF2 [3]: 0.041 µM

Molecule: non-labeled hypusine-containing human eIF5A (from UniProt P63241 1-154) (natural protein)
- Ki [4]: 0.016 µM
- Ki [5]: < 0.005 µM
- Ki [6]: 0.012 µM
- Ki [7]: < 0.005 µM

Molecule: non-hypusine-containing human eIF5A^T142C (lysine-containing) (from UniProt P63241 1-154) (natural protein)
- Ki [4]: 0.385 µM

Molecule: human reconstituted 80S ribosome with Met-tRNAi^Met (40S+60S+Met-tRNAi^Met) (complex)
- Kd [1]: 0.007 µM

Molecule: human reconstituted 80S ribosome (40S+60S) (complex)
- Kd [1]: 0.013 µM

B1: yeast eIF5A^C39A (natural protein)
chain: MSDEEHTFETADAGSSATYPMQCSALRKNGFVVIKSRPAKIVDMSTSKTGKHGHAKVHLVAIDIFTGKKLEDLSPSTHNMEVPVVKRNEYQLLDIDDGFLSLMNMDGDTKDDVKAPEGELGDSLQTAFDEGKDLMVTIISAMGEEAAISFKEAARTD
modifications: hypusine (co-expressed with the modifying enzymes; position not given)
- Ki in the presence of saturating eEF2 [8]: 0.051 µM
- Ki [7]: 0.009 µM

B2: yeast eIF5A^C39A,K56A (natural protein)
chain: B1 chain with K56A
modifications: hypusine-containing (position not given)
- Ki in the presence of saturating eEF2 [8]: 0.454 µM
- Ki [7]: 0.189 µM

B3: yeast eIF5A^C39A,Q22H,L93F (natural protein)
chain: B1 chain with Q22H, L93F
modifications: hypusine-containing (position not given)
- Ki in the presence of saturating eEF2 [8]: 0.539 µM
- Ki [7]: 0.569 µM
